According to paper PMC10589233:

Target: human SLC15A4 of the SLC15A4/ALFA_Nanobody/C5 complex (cryo-EM sample) (human) (UniProt Q8N697)
Assay: cryo-EM structure; purified SLC15A4/ALFA_Nanobody/C5 complex, 10 µM C5 in all buffers and 100 µM added to peak SEC fractions, 15 mg/ml; 2D averages showed dimeric and monomeric forms; the dimer resolved at 2.50 Å

stoichiometry N: 2
Substance: human SLC15A4 of the SLC15A4/ALFA_Nanobody/C5 complex (cryo-EM sample) (from UniProt Q8N697 1-577) (natural protein)
